This note sets out measurements from patent US20070048268A1.

This test deals with human IL-21 receptor (human) (UniProt Q9HBE5). The experiment in a line: cell-based or functional assay.

“human IL-21-saporin immunotoxin conjugate (from UniProt P20656 25-277)” showed a 3H-thymidine incorporation of MOLT-13 cells, relative to IL-21 treated cells of 70%; a growth inhibition of IM-9 cells, Alamar Blue proliferation assay, maximal conjugate concentration (250 ng/ml) of 79%; a growth inhibition of RAMOS cells, Alamar Blue proliferation assay, maximal conjugate concentration (250 ng/ml) of 65%; a growth of DEL cells, density relative to untreated cells of 25%. The substance also registered a growth of HuT-78 cells, density relative to untreated cells of 33%; a growth of HuT-102 cells, density relative to untreated cells of 20%; a growth of YT cells, density relative to untreated cells of 33%.
